Experimental data as given in the nanobody polyreactivity screen of Harvey et al. (2022).

Experiment: yeast display, Sf9 membrane polyspecificity reagent, FACS + sequencing; frameworks hold sequencing errors
Method in brief: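 Galactose-induced (36–48 hours) yeast carrying a synthetic nanobody display library were exposed to 10% biotinylated, detergent-solubilized Sf9 membrane reagent at 4 °C for 1 hour. FACS followed streptavidin microbead enrichment, using low and high (top ~1%) gates for expression (anti-HA) and reagent binding (streptavidin). Colony PCR, MiSeq 2 × 250 sequencing and CDR-length filtering followed. Labels for polyreactivity reflect the gate of origin.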

Sequence	polyreactivity (PSR sort gate)
QVQLVESGGGLVQAGGSLRLSCAASGSTFDSYAMGWYSQAPGKERELVAAITYSGGRTYYADSVKGRFTISRDNAKNTVYLQMNSLKPEDTAVYYCAATGVFRDEYWGQGTQVTVSS	low polyreactivity
QVQLVESGGGLVQAGGSLRLSCAASGSTFDSYARVWYRQAPGKETELVARISIVGSTNYADSVKGRFTISRANAKNTVYLQMNCLKPDDTAVYYCAADRDWQYSFRHSVYGYDYDYWGQGTLVTVSS	low polyreactivity
QVQLVESGGGLVQAGGSLRLSCAASGSTFDTNAMGWYRQAPGKERELVAAISASGGSTYYADSVKGRFTISRDNAKNTVYLQMNSLKPEDTAVYDCAAKTRGQQRKFDYWGQGSQVTVSS	high polyreactivity
QVQLVESGGGLVQAGGSLRLSCAASGSTFDTNTMGWYIQAPGKERELVAAITSSGTSTSYADSVKGRFTISRDNAKNTVYLQMNSLKPEDTAVYYCAALRPGGGDYSDYDYWGQGTQVSVSS	low polyreactivity
QVQLVESGGGLVQAGGSLRLSCAASGSTFDTYAMGWYRQAPGKEREFVATITGSGGSTYYADSVKVRFTITRDNAKNTVYLQMNSLKPEDTAVYYCNAETYIDLRGKFPVEYDYWGQGTQVTVSS	low polyreactivity
QVQLVESGGGLVQAGGSLRLSCAASGSTFDTYAMGWYRQAPGKERELVAAISRSGTSTYYADSVKGRFTISRDNAKNTVYLQMISLKPEDTAVYYCDKDAGLQKYHHDYWGQGTQVTVSS	low polyreactivity
QVQLVESGGGLVQAGGSLRLSCAASGSTFDTYAMGWYRQAPGKERELVAAISRSGTSTYYADSVKGRFTISRDNAKNTVYLQMKSLKPEDTAVYYCAAYGPRVNGEIGREYYYWGQGTQVTVSS	low polyreactivity
QVQLVESGGGLVQAGGSLRLSCAASGSTFDVNAMGSYRQAPGKERELVAAISWNSGSTYYADSVKGRFTISRDNAKNTVYLQMNSLKPEDTAVYYCAATYGTGRRSKYGYWGQGTQVTVSS	high polyreactivity
QVQLVESGGGLVQAGGSLRLSCAASGSTFDVNTMGWYRQAPGTERELVAAIRLRGGSTYYADSVKGRFTISRDNAKNTVYLQMNSLKPEDTAVYYCAADYTLIYDYWGQGTQVTVSS	low polyreactivity
QVQLVESGGGLVQAGGSLRLSCAASGSTFDVYVMGWYRQAPGKERELVAAISSGDDTNYADSVKGRFTISRDNAKNTVYLQMNSLKPEDTAVYYCAAAYYYYVSGWFDYWGQGTQVTVSS	low polyreactivity
QVQLVESGGGLVQAGGSLRLSCAASGSTFDWYAMGWYRQAPGKDRELVAAISSDDSTYYADSVKGRFTISRDNAKNTVYLQMNSLIPEDTAVYYCAVDVYSDYGDYGYWGQGTQVTVSS	low polyreactivity
QVQLVESGGGLVQAGGSLRLSCAASGSTFDYNAMGWYRQAPGKERELVAAISSGSRTNYADSVKGRFTISRDNAKNTVYLQMNSLKPEDTAVYYCAAKAYFYRRTQSRFSLYYYWGQGTQVTVSS	high polyreactivity
QVQLVESGGGLVQAGGSLRLSCAASGSTFDYNTMGWYRQAPGKERELVAAISESGGSTYYADSVKGRFTISRDNAKNTVYLQMNSLKPEDTAVSYCATDDFGGYFGEYDYWGQGTQVTVSS	low polyreactivity
QVQLVESGGGLVQAGGSLRLSCAASGSTFDYYAMGWSRQAPGKERELVAGITGGGSTYYADSVKGRFTISRDNAKNTVYLQMNSLKPEDTAVYYCNAGPALRYDYWGQGTQVTVSS	low polyreactivity
QVQLVESGGGLVQAGGSLRLSCAASGSTFDYYAMGWYRQAPAKERELVAVISRSGGSTYYADSVKGRFTISRDNAKNTVYLQMNSLKPEDTAVYYCAKSRPSKYDYWGQGTQVTVSS	high polyreactivity
QVQLVESGGGLVQAGGSLRLSCAASGSTFDYYAMGWYRQAPGKERELVAAISRTGGRTYYADSVKGRFTISRDNEKNSVYLQMHSLKPEESAVYYCNSVTRIGGGDYDYWGQGTQVTVSS	low polyreactivity
QVQLVESGGGLVQAGGSLRLSCAASGSTFDYYAMGWYRQAPGKERELVAAISSSGSRTHYADSVKGRFTISRDNAKNTVYLQMNSLKPEDTAVYYCATYTKYWRYPYDYWGQGTQVTVSS	high polyreactivity
QVQLVESGGGLVQAGGSLRLSCAASGSTFDYYAMGWYRQAPGKERELVAAISSSGSSTYYADSVKGLFTISRDNAKNTVYLQMNSLKPEDTAVYYCAKGTNYRDDYWGQGTQVTVSS	low polyreactivity
QVQLVESGGGLVQAGGSLRLSCAASGSTFDYYAMGWYRQAPGKERELVAAITGTGGSTYYADSVKGRFTISRDNAKNTVYLQMNSLKPEDTAVYYCAADTYLGWSYYWGQGTQVTVSS	high polyreactivity
QVQLVESGGGLVQAGGSLRLSCAASGSTFDYYDMGWYRQAPGKERELVAAINWSGGSTYYADSVKGRFTISRDNAKNTVYLQMNSLKPEDTAVYYCAADLSSRGISQDDYWGQGTQVTVSS	high polyreactivity
QVQLVESGGGLVQAGGSLRLSCAASGSTFDYYPMGWYRQAPGKERELVAAITYSGGRTSYADSVKGRFTISRDNAKNTVYLQMNSLKPEDTAVYYCAAVYDGQYYASYSTYDYDYWGQGTQVTVSS	low polyreactivity
QVQLVESGGGLVQAGGSLRLSCAASGSTFEDNTMGWYRQAPGKERELVAAISNSGGSTYYADSVKGRFTISRDNAKNTVYLQMNSLKPEDTAVYYCAADFYDPFDYWGQGTQVTVSS	low polyreactivity

Sequence	polyreactivity (PSR sort gate)
QVQLVESGGGLVQAGGSLRLSCAASGSTFEDYAMGWYRQAPGKERELVAVITGNGGSTNYADSVKGRFTISRDNAKNTVYLQMNSLKPEDTAVYYCAADFYTFVRSDYWGQGTQVTVSS	low polyreactivity
QVQLVESGGGLVQAGGSLRLSCAASGSTFEFYAMGWYRQAPGKERELVAAISSIGGSTYYADSVKGRFTISRDNAKNTVYLQMNSLKPEDTAVYYCAATSDSSLYVYWGQGTQVTVSS	low polyreactivity
QVQLVESGGGLVQAGGSLRLSCAASGSTFEKNAMGWYRQAPGKERELVAAISNGVSTYYADSVKGRFTISRDNAKNTVYLQMNSLKPEDTAVYYCAADLFFGAETVYYDKFDYWGQGTQVTVSS	low polyreactivity
QVQLVESGGGLVQAGGSLRLSCAASGSTFENNVMGWYRQAPGKERELVATITWGDGSTSYADSVKGRFTISRDNAKNTVYLQMNSLKPEDTAVYYCAADDRIGYGKNKDHDYWGQGTQVTVSS	low polyreactivity
QVQLVESGGGLVQAGGSLRLSCAASGSTFEPNAMGWSRQEPGKERELVASITSSGGSTYYADSVKGRFTISRDNAKNTVYLQMKSLKPEDTAVYYCNARVPPQGWGPWKAFDYWGQGTQVTVSS	low polyreactivity
QVQLVESGGGLVQAGGSLRLSCAASGSTFEQYAMGWYRQAPGKERELVAAISGSGTRTYYADSVKGRFTISRDNAKNTVYLQMNSLKPEDTAVYYCAARFSYPAIHQAYYHWGQGTQVTVSS	high polyreactivity
QVQLVESGGGLVQAGGSLRLSCAASGSTFERNTMGWYRQAPGKERELVASISRGDGTYADSVKGRFTISRDNAKNTVYLQMNSLKPEDTAVYYCAAVQRESGSDYDYWGQGTQVTVSS	low polyreactivity
QVQLVESGGGLVQAGGSLRLSCAASGSTFERYAMGWYRQAPGKEREFVATINWGGGSTYYADSVKGRFTISRDNAKNTVYLQMNSLKPEDTAVYYCNAYVLYQSWRFSYDCWGQGTQVTVSS	low polyreactivity
QVQLVESGGGLVQAGGSLRLSCAASGSTFERYVMGWYRQRQGKKWSWLPVLNHNGGSTYYADSVKGRFTISRDNAKNSVYLQMNSRKPEYTAVYYCAKDGLNESQFPGNLRDYWGQGTQVNVSS	low polyreactivity
QVQLVESGGGLVQAGGSLRLSCAASGSTFESNAMGWYRQAPGKERELVAAISRGRTNYADSVKGRFTISRDNAKNTVYLQMNSLKPEDTAVYYCAADGLSNVRQMDYWGQGTQVTVSS	low polyreactivity
QVQLVESGGGLVQAGGSLRLSCAASGSTFESYAMGWYRQAPGKERELVAAISGRVGSTYYADSVKGRFTISRDNAKNTVYLQMNSLKPEDTAVYYCASKGWYSHYGGYDYWGQGTQVTVSS	low polyreactivity
QVQLVESGGGLVQAGGSLRLSCAASGSTFEVYAMGWYRQAPGTERELVAVITNSGTSTNYADSVKGRFTISRDNAKNTVYLQMTSLKPEDTAVYYCAADVEWTSRGSYYRYYYWGQGTQVTVSS	low polyreactivity
QVQLVESGGGLVQAGGSLRLSCAASGSTFEYNAMGWYRQAPGKERELVASSTNYADSVKGRFTISLDNAKNTVYLQMNSLKPEDTAVYYCAREQGVNRNHDYWGQGTQVNVSS	low polyreactivity
QVQLVESGGGLVQAGGSLRLSCAASGSTFFANTMGWYRQAPGKERELVAAIRDSGGSTYYADSVKGRFTISRDNSKNTVYLQMNSLKPEDTAVYYCSARYLVYGYPYRFYYWGQGTQVTVSS	high polyreactivity
QVQLVESGGGLVQAGGSLRLSCAASGSTFFDNAMGWYRQAPGKERELVAAISWSGARTYYADSVKGRFTISRDNAKNTVYLQMNSLKPEDTAVYYCAARFYVSNSRKSARNYWGQGTQVTVSS	high polyreactivity
QVQLVESGGGLVQAGGSLRLSCAASGSTFFDYAMGWYRQAPGKERELVAVISDGGTTTYADSVKGRFTISRDNAKNTVYLQMNSLKPVDTAVYYCAAENQDGLLVILGGYGYWGQGTQVTVSS	low polyreactivity
QVQLVESGGGLVQAGGSLRLSCAASGSTFFEYTMGWYRQAPGKEREFVADIRGRDGSTSYADSVKGRFTISRDNAKNTVYLQMKSLKPEDTAVYYCGADVSDWWSFGNDSWGHGTQVTVSS	low polyreactivity
QVQLVESGGGLVQAGGSLRLSCAASGSTFFEYTMGWYRQAPGKEREFVADIRGRDGSTSYADSVKGRFTISRDNAKNTVYLQMNSLKPEDTAVYYCAADVSDWWSFGNDSWGQGTQVTVSS	low polyreactivity
QVQLVESGGGLVQAGGSLRLSCAASGSTFFFNEMGWYRQAPGKEREVVAAITGRSGSTYYADSVKGRFTISRDNANNTDYLQMNSLKPEDNAVYYCAGDYSPWRSDFDYWGQGTQVTVSS	low polyreactivity
QVQLVESGGGLVQAGGSLRLSCAASGSTFFGNAMGWYRQAPGKERELVAVITKGGGSTYYADSVKGRFTISRDNAKNTVYLQMNSLKPEDTAVYYCAKTYTSGYHRRYDYWGQGTQVTVSS	low polyreactivity
QVQLVESGGGLVQAGGSLRLSCAASGSTFFHYAMGWYRQAPGKERELVAAIDSNGGSTYYADSVKGRFTISRDNAKNTVYLQMNSLKPEVTAVYYCAADDLAEFEYDYWGLGTQVTVSS	low polyreactivity
